Laboratory results from publication PMC2175355.

Target: RNA polymerase holoenzyme (sigma70);RapA (native) (Escherichia coli;Escherichia coli) (UniProt P0A7Z4+P0A8V2+P0A8T7+P0A800+P00579+P60240)
Assay: EMSA

Substance “55-nt RNA with two stem-loops and rA18 tail” has a binding signal (fold affinity vs holoenzyme without RapA) greater than 20.
